Values belong to the binder of their own block, whether it stands above or below them.
Biological target: IL-21_mouse_WT Fc fusion protein (mouse; human, UniProt Q9ES17 18-146)
Assay: BLI

- Kd: 5.08 nM
B1: mouse IL-21R, His-tagged (BLI antigen) (receptor, not shown: small tags and cut ends)
chain: not shown

- Kd: 6.38 nM
B2: recombinant human IL-21R His tag (Acro Biosystems) (receptor, not shown: small tags and cut ends)
chain: not shown

Source: patent US12281147 (dated 2025)
